Assay results published in the supplement of paper PMC12042874.
± gives the uncertainty stated by the source.

Assay: amyloid nucleation score (Sup35N fusion, yeast selection) (log enrichment); library NNK2; higher = more nucleation; inactive = no reads after selection
How it was run: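 For the nucleation score, DiMSum gave the log enrichment of output over input reads, centred on the mode score of non-aggregating sequences. Psi-negative yeast expressing Sup35N fused to peptides of 20 random codons were induced with 100 μM copper sulfate for 24 hours and grown 7 days at 30°C on medium lacking adenine and uracil. Input and output plasmid inserts were Illumina-sequenced, and sequences with under 100 input reads were excluded.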
For ITSSEVGHWYRVTEKCHIRM, the amyloid nucleation score was 1.2 ± 0.3. For VWIGAAGGDFDSCRG, the amyloid nucleation score was 1.29 ± 0.43. With TPILFVT the amyloid nucleation score was -0.746 ± 0.56. CPIRMLSKNGCSTHSFNMAW showed an amyloid nucleation score of 0.241 ± 0.8. In the case of SELIGFLGGNQIELA, the amyloid nucleation score is reported as 0.027 ± 0.34. Work on NDKFCATDESVRSRSI yielded an amyloid nucleation score of 0.042 ± 0.37. IFGFGMFKWKTFLTLSVFV gave an amyloid nucleation score of -0.223 ± 0.76. Work on VGGGTECVLSRQEFGCWLLW yielded an amyloid nucleation score of 0.649 ± 0.48. AASWHPAYCIYGPGGRDKVG gave an amyloid nucleation score of 2.49 ± 0.12. Substance HIVAGCIVQLANILWDRAEG has an amyloid nucleation score of 0.57 ± 0.38. Substance GLRCRYPSRPVTCGLLWGCG has an amyloid nucleation score of 0.089 ± 0.37. QPISVMSNLSEIIWTYSMRA showed an amyloid nucleation score of -0.002 ± 0.63. FSNSTIFDVHAQVLGDFERP gave an amyloid nucleation score of -0.254 ± 1. With HSAYSWFLKSSNRRSWANSS the amyloid nucleation score was -0.666 ± 0.79. With PDSRPIVRRSANCIWSNSWF the amyloid nucleation score was 1.38 ± 0.1. For YFVEYSW, the amyloid nucleation score was 0.542 ± 0.47. FSQYCMALLIVNQEFWACCW showed an amyloid nucleation score of -0.944 ± 0.45. Work on LMRRHRA yielded an amyloid nucleation score of 0.954 ± 0.25. For SYLSCGQKKHWCWPKVDSFR, the amyloid nucleation score was -0.444 ± 0.42. In the case of YVMSVRSAIRPIGSCVKKEY, the amyloid nucleation score is reported as 0.101 ± 0.76. Substance SPSEYLLVAYMSHLTENETV has an amyloid nucleation score of -0.064 ± 0.45. With RFPCRLLRASLFP the amyloid nucleation score was -0.636 ± 0.45. GTYAKSMLSSKVVAG gave an amyloid nucleation score of 1.48 ± 0.18. Substance FGWVVSSVSFKVMMAV has an amyloid nucleation score of -0.084 ± 0.44. For KLYWGNWWCRGSLVDTI, the amyloid nucleation score was 0.695 ± 0.66. Substance ISSDRIYICL has an amyloid nucleation score of 5.996 ± 0.059. With RVERLWVLHSKATQRRM the amyloid nucleation score was 0.063 ± 0.79. Substance YIDRVTYRLSTGSTMEAWSA has an amyloid nucleation score of 0.688 ± 0.15. Substance LNRVQLNLRGQRITLSHYQI has an amyloid nucleation score of -0.536 ± 1.1. With VKMFVF the amyloid nucleation score was -0.221 ± 0.79. For FMGGFG, the amyloid nucleation score was 0.079 ± 0.63. Work on MMSGCGFSLKACLKEWRGGL yielded an amyloid nucleation score of 7.572 ± 0.036. Substance LLLINLLFSASKLALSM has an amyloid nucleation score of -0.679 ± 1.1. VHLALTRCM gave an amyloid nucleation score of 0.844 ± 0.32. NFWYCYTLSDNNYFF showed an amyloid nucleation score of 7.41 ± 0.038. Work on STTYFDVCMVGFWYNFSTWG yielded an amyloid nucleation score of -0.994 ± 1.1. In the case of NFYMSKVVSFKNGCM, the amyloid nucleation score is reported as 3.3 ± 0.057. With MACFECFTGISACNLNMRG the amyloid nucleation score was 8.574 ± 0.026. DPVRWRVKFFFYDSEVCGPL showed an amyloid nucleation score of 2.73 ± 0.17. With TIGGEASVPRRMPLYTLQCE the amyloid nucleation score was 6.03 ± 0.088. VVSKDDRDGNV showed an amyloid nucleation score of 3.14 ± 0.044. With VPSRGLF the amyloid nucleation score was 0.815 ± 0.4. ASCMS showed an amyloid nucleation score of -0.056 ± 0.32. SLVTSIVQG showed an amyloid nucleation score of -0.434 ± 0.64. With RRFKSDLL the amyloid nucleation score was 1.57 ± 0.44. Substance LGCHLVGLVNRGKNGGRISL has an amyloid nucleation score of 0.315 ± 0.74. For RFDQGVGTLWHVSLVTE, the amyloid nucleation score was -0.107 ± 1. For NERRT, the amyloid nucleation score was 0.995 ± 0.53. QFSLAVSTLSL showed an amyloid nucleation score of 1.48 ± 0.27. In the case of STGILRS, the amyloid nucleation score is reported as “inactive”. SRSQPVICWNTWFVTWYESS gave an amyloid nucleation score of 8.914 ± 0.075. Work on SYCSLVFLTDISSYIGFQCV yielded an amyloid nucleation score of 5.16 ± 0.078. For DVSGLNIVERGYKRCTGGND, the amyloid nucleation score was -0.054 ± 0.62. In the case of YARANYYALLWPRLTFPMIL, the amyloid nucleation score is reported as -1.41 ± 0.78. In the case of YSGVSTTSFISDKPYRSRRR, the amyloid nucleation score is reported as -1.95 ± 1. Work on DSRTFGITYYNDVLITGLCR yielded an amyloid nucleation score of -0.709 ± 0.39. For KLLKYLSNSFTHRVLCNHDD, the amyloid nucleation score was “inactive”. For WEGLSGTSLVLSQCFAPFSS, the amyloid nucleation score was 2.17 ± 0.12. With MSLPRSPAWGV the amyloid nucleation score was 0.863 ± 0.27. In the case of FINGGSCYAFFCKYGYRMHR, the amyloid nucleation score is reported as -0.109 ± 0.37. Work on RVSVDTWQAYMAICWSYVGL yielded an amyloid nucleation score of 0.915 ± 0.23. CQMYWYFWPGVTRFAR gave an amyloid nucleation score of 8.633 ± 0.03. LNLIHR showed an amyloid nucleation score of 0.153 ± 0.79. In the case of KALAYAWLCISLYKDFGYYN, the amyloid nucleation score is reported as “inactive”. TRFGPPVHSKLCPPAMWPGW gave an amyloid nucleation score of 0.691 ± 0.23. In the case of ISDMS, the amyloid nucleation score is reported as -0.416 ± 0.28. LVWTD showed an amyloid nucleation score of -0.018 ± 1.1. Substance DGFRVCDMFGHAWGVENIPF has an amyloid nucleation score of 0.086 ± 0.31. Substance FRDVPGRECMRLRVYGMNLP has an amyloid nucleation score of 0.753 ± 0.21. In the case of GKLAARTAINSLFCKLGRRP, the amyloid nucleation score is reported as -0.066 ± 0.63. LLLLTHYEAITR showed an amyloid nucleation score of 0.305 ± 0.43. With PNDLLHLSRLIQDMWMINFN the amyloid nucleation score was “inactive”.
